Test results from EP4786489A1, “IL-22 MUTANT, PREPARATION METHOD THEREFOR, AND USE THEREOF” (Nanjing Novoacine Biotechnology Co., Ltd., priority 2023, dated 2025).

Key:
STAT3 = STAT3 phosphorylation in HaCaT cells by FACS (tissue activation preference); assay type: cell-based, Human; details: STAT3 activation in HT29 vs HaCaT cells
Description: Human immortalized keratinocyte HaCaT cells were recovered and cultured in MEM/EBSS medium (Cytiva, SH30024.01) supplemented with 15% FBS and 1% P/S (Cytiva, SV30010). When cell confluence reached 70%-80%, cells were digested with 0.25% Trypsin-EDTA (Gibco, 25200-056), terminated with complete medium, and resuspended to […]. After mixed thoroughly, a total of 120 µL per well cells was seeded into a 96-well plate (Corning, 3599) at a density of 1.5 × 10^5 cells per well and incubated overnight at 37°C with 5% CO2.
wt IL-22 was prepared at an initial working concentration of 1000 nM, and the remaining samples were prepared at 10000 nM as the starting concentration. […] After staining at room temperature in the dark for 1 hour, cells were washed twice with 1× PBS and analyzed by flow cytometry to determine the mean fluorescence intensity (MFI).
Tissue activation preference of different test candidates was evaluated by comparing their ability to activate STAT3 in intestinal-derived HT29 cells and skin-derived HaCaT cells. […] The activity of PEGylated IL-22 mutants in activating STAT3 phosphorylation in HaCaT cells at different concentrations as determined by FACS is shown in Figure 8. […] Tissue preference of PEG-IL22 mutants for STAT3 phosphorylation in human intestinal and human skin cell lines determined by FACS

Reg3β = assay: Mouse PD: plasma Reg3β after single administration (ELISA); assay type: in vivo; parameters: Reg3βCmax: unit not given here; details: for Reg3βCmax: mouse plasma, wt IL-22 i.p.
Description: The ELISA method was used to determine the baseline levels and post-dose changes of the biomarker Reg3β in plasma samples before and after administration of different test candidates.
For the preferable test candidates, one mouse per dose group was subcutaneously injected at 0.5, 1, or 3 mg/kg. The control molecules were IL-22-Fc, administered subcutaneously at 0.3 and 1 mg/kg, and wt IL-22, administered intraperitoneally at the corresponding doses.
Approximately 40 µL of orbital blood was collected with anticoagulation on the day before dosing and at 4, 24, 48, 96, 144, 192, 264, 336, and 408 hours after dosing, followed by plasma separation. ELISA plates were coated overnight at 4°C with 1 µg/mL anti-Reg3β (Sino Biological, 51153-R065) dissolved in PBS. Mouse Reg3β (Sino Biological, 51153-M08H) was serially diluted to generate a positive control standard curve. Plasma samples were appropriately diluted to fall within the linear range of the standard curve. After blocking, samples were added and incubated for 2 hours. Incubation was then performed with the secondary antibody sheep anti-mouse Reg3β (R&D Systems, AF5110-SP) and HRP-conjugated antibody (HRP-Rabbit anti-sheep IgG H&L, Abcam, Ab97130). After final washing, tetramethylbenzidine peroxidase substrate (TMB, Surmodics, TMBS-1000-01) was added for color development for 10 minutes. The reaction was terminated with 2 M sulfuric acid, and absorbance was read at 450 nm with 630 nm as reference using a microplate reader. The original concentrations of Reg3β in each sample were calculated. Concentration versus time curves were plotted (Figure 9).

SAA = assay: Mouse PD preference study: plasma SAA; assay type: in vivo, mice; details: at equivalent or superior Reg3β Cmax: 60K-PEG-IL22-D109C 0.1 mg/kg vs 60K-PEG-IL22-P120C 0.3 mg/kg vs IL-22-Fc 1 mg/kg, s.c.
Description: Based on the in vitro preference results and preliminary PD screening results, the molecules 60k-PEG-IL22-D109C and 60k-PEG-IL22-P120C were selected. PD testing was performed in three mice per dose group at different dose levels according to the method described in Example 14, including the pharmacodynamic-related molecule Reg3β and the inflammation-related molecule SAA. The control was IL-22-Fc. Blood samples were collected before dosing and at 4, 24, 48, 72, 96, 144, 192, 264, and 336 hours after dosing. Plasma was separated using anticoagulated blood samples. For the control molecules wt IL-22 and hB3-his, samples were collected only up to 96 hours.
The detection method for SAA was as follows: a kit containing detecting antibody pairs and positive controls (Abcam, Ab216059) was used to detect SAA concentrations in appropriately diluted plasma samples. The assay was performed according to the manufacturer's instructions. Sa-HRP (Pierce 21126) was used for conjugation. After washing, tetramethylbenzidine peroxidase substrate (TMB, Surmodics, TMBS-1000-01) was added for color development for 10 minutes. The reaction was terminated with 2 M sulfuric acid, and the plate was read at 450 nm with 630 nm as the reference using a microplate reader. SAA was measured before dosing and at 24, 48, 72, 96, and 144 hours after dosing. The original SAA concentration in each sample was calculated. […]

[1] = Mouse PK, plasma concentration by ELISA; assay type: in vivo; details: single s.c. 1 mg/kg, male Balb/C mice
Description: Male Balb/C mice (n = 4 per group) were administered a single subcutaneous injection at a dose of 1 mg/kg. Blood samples were collected before dosing and at 4 (no samples were collected at this time point for 60k-PEG-IL22-D109C and 60k-PEG-IL22-P120C), 8, 24, […], 48, 72, 96, and 120 hours after dosing. Anticoagulated blood was used to prepare plasma.
The concentrations of each test candidate in plasma were quantified by ELISA. Anti-IL22 Antibody (Sino Biological, 13059-MM24), diluted in PBS to 2 µg/mL, was used for coating. Standard curves of each test candidate and plasma samples were diluted to fall within the linear range of detection. Recombinant Anti-IL22 Antibody (Sino Biological, 13059-R034-H) was used for detection. The original concentration of each test candidate in the samples was calculated using a four-parameter fit of the standard curve for each test candidate. Pharmacokinetic parameters of each test candidate in mouse plasma were analyzed (Figure 12). Table 13. Dosing information for the mouse PK study

B1: 60K-PEG-IL22-D109C: IL-22 cysteine mutant, conjugation site 76, PEG-maleimide 60kD (conjugate)
chain: APISSHCRLDKSNFQQPYITNRTFMLAKEASLADNNTDVRLIGEKLFHGVSMSERCYLMKQVLNFTLEEVLFPQSCRFQPYMQEVVPFLARLSNRLSTCHIEGDDLHIQRNVQKLKDTVKKLGESGEIKAIGELDLLFMSLRNACI
tissue preference compared with IL-22-Fc (STAT3): superior tissue preference | Normalized Cmax ratio of Reg3β (relative to IL-22-Fc) (Reg3β; 0.5mg/kg single dose vs IL-22-Fc 0.3 mg/kg): 329% | Reg3βCmax (Reg3β; 0.5mg/kg single dose, test candidates s.c., one mouse per dose group): 52.0 | Normalized Cmax ratio of Reg3β (relative to IL-22-Fc) (Reg3β; 1mg/kg single dose): 251% | Reg3βCmax (Reg3β; 1mg/kg single dose, s.c.): 82.9 | Reg3βCmax (Reg3β; 3mg/kg single dose, s.c.): 73.4 | peak concentrations of Reg3β stimulation compared with IL-22-Fc (Reg3β; similar (0.5 mg/kg vs. 0.3 mg/kg) or identical (1 mg/kg) doses): higher peak concentrations | SAA Cmax compared with IL-22-Fc (SAA): significantly lower | AUClast [1]: 301.5835 µg·h/mL | Cmax [1]: 5460.625 ng/mL | MRT [1]: 41.39 h | T1/2 [1]: 21.6 h
